How the values were obtained:
HeLa Kyoto [1] = assay: solubility in G1/S (NP-40 vs SDS abundance) (log2 ratio); higher = more soluble; details: cell cycle stage: G1/S
HeLa Kyoto [2] = assay: melting temperature (median over replicates), in situ; higher = more thermally stable
HeLa Kyoto [3] = assay: solubility change mitosis vs G1/S (difference of NP-40 vs SDS log2 ratios) (log2 ratio difference); higher = more soluble in mitosis
HeLa Kyoto [4] = assay: thermal stability score vs G1/S (z-score of summed log2 fold changes over temperatures); higher = more thermally stable than in G1/S
[5] = cell cycle stage: early G1 (4.5 h after nocodazole release)
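For melting temperature (median over replicates), in situ in this document: HeLa Kyoto cells synchronized by double thymidine or nocodazole block, proteins quantified by TMT10plex mass spectrometry, three independent biological replicates.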
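For solubility change mitosis vs G1/S (difference of NP-40 vs SDS log2 ratios) in this document: synchronized HeLa Kyoto cells (double thymidine block for G1/S, nocodazole release for mitosis), protein amounts in NP-40 versus SDS lysates quantified by mass spectrometry, three biological replicates.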
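For solubility in G1/S (NP-40 vs SDS abundance) in this document: HeLa Kyoto cells arrested at G1/S by double thymidine block, proteins quantified by TMT10plex mass spectrometry in mild NP-40 versus SDS extracts, three biological replicates.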
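For thermal stability score vs G1/S (z-score of summed log2 fold changes over temperatures) in this document: synchronized HeLa Kyoto cells, proteins quantified by TMT10plex mass spectrometry, three biological replicates, mitosis taken 0.5 h after nocodazole release, G1/S directly after double thymidine block.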

| Sequence | solubility in G1/S (log2) (HeLa Kyoto [1]) | melting temperature (HeLa Kyoto [2]; cell cycle stage: G1/S) | melting temperature (HeLa Kyoto [2]; cell cycle stage: mitosis) | solubility change mitosis (log2) (HeLa Kyoto [3]) | thermal stability score (HeLa Kyoto [4]; [5]) | thermal stability score (HeLa Kyoto [4]; cell cycle stage: mitosis) |
| --- | --- | --- | --- | --- | --- | --- |
| MGAPLLSPGWGAGAAGRRWWMLLAPLLPALLLVRPAGALVEGLYCGTRDCYEVLGVSRSAGKAEIARAYRQLARRYHPDRYRPQPGDEGPGRTPQSAEEAFLLVATAYETLKDEETRKDYDYMLDHPEEYYSHYYHYYSRRLAPKVDVRVVILVSVCAISVFQFFSWWNSYNKAISYLATVPKYRIQATEIAKQQGLLKKAKEKGKNKKSKEEIRDEEENIIKNIIKSKIDIKGGYQKPQICDLLLFQIILAPFHLCSYIVWYCRWIYNFNIKGKEYGEEERLYIIRKSMKMSKSQFDSLEDHQKETFLKRELWIKENYEVYKQEQEEELKKKLANDPRWKRYRRWMKNEGPGRLTFVDD [DNAJC25] | -0.101 | 50.5 °C | 50.2 °C | 0.00727 | 0.0789 | -0.224 |
| MSFIPVAEDSDFPIHNLPYGVFSTRGDPRPRIGVAIGDQILDLSIIKHLFTGPVLSKHQDVFNQPTLNSFMGLGQAAWKEARVFLQNLLSVSQARLRDDTELRKCAFISQASATMHLPATIGDYTDFYSSRQHATNVGIMFRDKENALMPNWLHLPVGYHGRASSVVVSGTPIRRPMGQMKPDDSKPPVYGACKLLDMELEMAFFVGPGNRLGEPIPISKAHEHIFGMVLMNDWSARDIQKWEYVPLGPFLGKSFGTTVSPWVVPMDALMPFAVPNPKQDPRPLPYLCHDEPYTFDINLSVNLKGEGMSQAATICKSNFKYMYWTMLQQLTHHSVNGCNLRPGDLLASGTISGPEPENFGSMLELSWKGTKPIDLGNGQTRKFLLDGDEVIITGYCQGDGYRIGFGQCAGKVLPALLPS [FAH] | 0.207 | 58.7 °C | 59 °C | -0.0884 | -0.791 | -0.764 |
| MSGTKPDILWAPHHVDRFVVCDSELSLYHVESTVNSELKAGSLRLSEDSAATLLSINSDTPYMKCVAWYLNYDPECLLAVGQANGRVVLTSLGQDHNSKFKDLIGKEFVPKHARQCNTLAWNPLDSNWLAAGLDKHRADFSVLIWDICSKYTPDIVPMEKVKLSAGETETTLLVTKPLYELGQNDACLSLCWLPRDQKLLLAGMHRNLAIFDLRNTSQKMFVNTKAVQGVTVDPYFHDRVASFYEGQVAIWDLRKFEKPVLTLTEQPKPLTKVAWCPTRTGLLATLTRDSNIIRLYDMQHTPTPIGDETEPTIIERSVQPCDNYIASFAWHPTSQNRMIVVTPNRTMSDFTVFERISLAWSPITSLMWACGRHLYECTEEENDNSLEKDIATKMRLRALSRYGLDTEQVWRNHILAGNEDPQLKSLWYTLHFMKQYTEDMDQKSPGNKGSLVYAGIKSIVKSSLGMVESSRHNWSGLDKQSDIQNLNEERILALQLCGWIKKGTDVDVGPFLNSLVQEGEWERAAAVALFNLDIRRAIQILNEGASSEKGDLNLNVVAMALSGYTDEKNSLWREMCSTLRLQLNNPYLCVMFAFLTSETGSYDGVLYENKVAVRDRVAFACKFLSDTQLNRYIEKLTNEMKEAGNLEGILLTGLTKDGVDLMESYVDRTGDVQTASYCMLQGSPLDVLKDERVQYWIENYRNLLDAWRFWHKRAEFDIHRSKLDPSSKPLAQVFVSCNFCGKSISYSCSAVPHQGRGFSQYGVSGSPTKSKVTSCPGCRKPLPRCALCLINMGTPVSSCPGGTKSDEKVDLSKDKKLAQFNNWFTWCHNCRHGGHAGHMLSWFRDHAECPVSACTCKCMQLDTTGNLVPAETVQP [MIOS] | -0.271 | 53.9 °C | 53 °C | 0.0327 | -0.829 | -1.48 |
| MLERPPALAMPMPTEGTPPPLSGTPIPVPAYFRHAEPGFSLKRPRGLSRSLPPPPPAKGSIPISRLFPPRTPGWHQLQPRRVSFRGEASETLQSPGYDPSRPESFFQQSFQRLSRLGHGSYGEVFKVRSKEDGRLYAVKRSMSPFRGPKDRARKLAEVGSHEKVGQHPCCVRLEQAWEEGGILYLQTELCGPSLQQHCEAWGASLPEAQVWGYLRDTLLALAHLHSQGLVHLDVKPANIFLGPRGRCKLGDFGLLVELGTAGAGEVQEGDPRYMAPELLQGSYGTAADVFSLGLTILEVACNMELPHGGEGWQQLRQGYLPPEFTAGLSSELRSVLVMMLEPDPKLRATAEALLALPVLRQPRAWGVLWCMAAEALSRGWALWQALLALLCWLWHGLAHPASWLQPLGPPATPPGSPPCSLLLDSSLSSNWDDDSLGPSLSPEAVLARTVGSTSTPRSRCTPRDALDLSDINSEPPRGSFPSFEPRNLLSLFEDTLDPT [PKMYT1] | 0.406 | 48.7 °C | 49 °C | -0.332 | 0.535 | 0.495 |
| MSVGFIGAGQLAFALAKGFTAAGVLAAHKIMASSPDMDLATVSALRKMGVKLTPHNKETVQHSDVLFLAVKPHIIPFILDEIGADIEDRHIVVSCAAGVTISSIEKKLSAFRPAPRVIRCMTNTPVVVREGATVYATGTHAQVEDGRLMEQLLSSVGFCTEVEEDLIDAVTGLSGSGPAYAFTALDALADGGVKMGLPRRLAVRLGAQALLGAAKMLLHSEQHPGQLKDNVSSPGGATIHALHVLESGGFRSLLINAVEASCIRTRELQSMADQEQVSPAAIKKTILDKVKLDSPAGTALSPSGHTKLLPRSLAPAGKD [PYCR1] | 0.208 | 54.9 °C | 53.7 °C | -0.0764 | 0.0884 | -3.11 |
| MAYNDTDRNQTEKLLKRVRELEQEVQRLKKEQAKNKEDSNIRENSAGAGKTKRAFDFSAHGRRHVALRIAYMGWGYQGFASQENTNNTIEEKLFEALTKTRLVESRQTSNYHRCGRTDKGVSAFGQVISLDLRSQFPRGRDSEDFNVKEEANAAAEEIRYTHILNRVLPPDIRILAWAPVEPSFSARFSCLERTYRYFFPRADLDIVTMDYAAQKYVGTHDFRNLCKMDVANGVINFQRTILSAQVQLVGQSPGEGRWQEPFQLCQFEVTGQAFLYHQVRCMMAILFLIGQGMEKPEIIDELLNIEKNPQKPQYSMAVEFPLVLYDCKFENVKWIYDQEAQEFNITHLQQLWANHAVKTHMLYSMLQGLDTVPVPCGIGPKMDGMTEWGNVKPSVIKQTSAFVEGVKMRTYKPLMDRPKCQGLESRIQHFVRRGRIEHPHLFHEEETKAKRDCNDTLEEENTNLETPTKRVCVDTEIKSII [PUS3] | 0.0227 | 51.6 °C | 52.7 °C | -0.169 | 0.0981 | -0.181 |
| MDLLFGRRKTPEELLRQNQRALNRAMRELDRERQKLETQEKKIIADIKKMAKQGQMDAVRIMAKDLVRTRRYVRKFVLMRANIQAVSLKIQTLKSNNSMAQAMKGVTKAMGTMNRQLKLPQIQKIMMEFERQAEIMDMKEEMMNDAIDDAMGDEEDEEESDAVVSQVLDELGLSLTDELSNLPSTGGSLSVAAGGKKAEAAASALADADADLEERLKNLRRD [CHMP2A] | 0.537 | 53 °C | 54.4 °C | 0.0293 | 0.326 | 0.533 |
| MAASAGAGAVIAAPDSRRWLWSVLAAALGLLTAGVSALEVYTPKEIFVANGTQGKLTCKFKSTSTTGGLTSVSWSFQPEGADTTVSFFHYSQGQVYLGNYPPFKDRISWAGDLDKKDASINIENMQFIHNGTYICDVKNPPDIVVQPGHIRLYVVEKENLPVFPVWVVVGIVTAVVLGLTLLISMILAVLYRRKNSKRDYTGCSTSESLSPVKQAPRKSPSDTEGLVKSLPSGSHQGPVIYAQLDHSGGHHSDKINKSESVVYADIRKN [MPZL1] | 0.534 | 57.8 °C | 58.1 °C | -0.289 | -1.73 | -3.55 |
